Target: human CD4, membrane-bound on the surface of cells (human, UniProt P01730 26-458)
Test: cell-based or functional assay

B1: murine monoclonal antibody B4 (mAb B4) (antibody, V domains shown)
VH: QVQLQQSGPELVKPGASVRMSCKASGYTFTDYVIHWVKQRTGQGLEWIGEIYPGSGSAYSNAKFKDKATLTADKSSNTAYMQLSSLTSEDSAVYFCARRGNGTGFAYWGQGTLVTVSA
VL: DIVLTQSPASLAVSLGQRATISCKAGQSVDYDGDSYMNWYQQKPGQPPKLLIYVASNLESGIPARFSGSGSGTDFTLNIHPVEEEDAATYYCQQSYKDPLTFGAGTKLELK
IC50, HIV entry inhibition (PhenoSense), control virus 92HT594: 0.021 µg/mL | IC50, HIV entry inhibition (PhenoSense), control virus JRCSF: 0.034 µg/mL | IC50, HIV entry inhibition (PhenoSense), control virus JRFL: 0.074 µg/mL | IC50, HIV entry inhibition (PhenoSense), isolate 92/RW/008, clade A: 0.026 µg/mL | IC50, HIV entry inhibition (PhenoSense), isolate 92/RW/024, clade A: 0.055 µg/mL | IC50, HIV entry inhibition (PhenoSense), isolate 92/TH/005, clade EA: 0.012 µg/mL | IC50, HIV entry inhibition (PhenoSense), isolate 92/TH/006, clade EA: 0.022 µg/mL | IC50, HIV entry inhibition (PhenoSense), isolate 92/TH/007, clade EA: 0.013 µg/mL | IC50, HIV entry inhibition (PhenoSense), isolate 92/TH/009, clade EA: 0.021 µg/mL | IC50, HIV entry inhibition (PhenoSense), isolate 92/TH/019, clade EA: 0.022 µg/mL | IC50, HIV entry inhibition (PhenoSense), isolate 92/TH/020, clade EA: 0.015 µg/mL | IC50, HIV entry inhibition (PhenoSense), isolate 92/TH/021, clade EA: 0.017 µg/mL | IC50, HIV entry inhibition (PhenoSense), isolate 92/TH/022, clade EA: 0.012 µg/mL | IC50, HIV entry inhibition (PhenoSense), isolate 92/TH/024, clade EA: 0.01 µg/mL | IC50, HIV entry inhibition (PhenoSense), isolate 92/UG/001, clade D: 0.018 µg/mL | IC50, HIV entry inhibition (PhenoSense), isolate 92/UG/005, clade D: 0.019 µg/mL | IC50, HIV entry inhibition (PhenoSense), isolate 92/UG/021, clade D: 0.017 µg/mL | IC50, HIV entry inhibition (PhenoSense), isolate 92/UG/024, clade D: 0.04 µg/mL | IC50, HIV entry inhibition (PhenoSense), isolate 92/UG/035, clade D: 0.011 µg/mL | IC50, HIV entry inhibition (PhenoSense), isolate 92/UG/038, clade D: 0.014 µg/mL | IC50, HIV entry inhibition (PhenoSense), isolate 92/UG/046, clade D: 0.015 µg/mL | IC50, HIV entry inhibition (PhenoSense), isolate 92/UG/053, clade D: 0.02 µg/mL | IC50, HIV entry inhibition (PhenoSense), isolate 92/UG/065, clade D: 0.015 µg/mL | IC50, HIV entry inhibition (PhenoSense), isolate 93/BR/019, clade BF: 0.013 µg/mL | IC50, HIV entry inhibition (PhenoSense), isolate 93/BR/020, clade F: 0.024 µg/mL | IC50, HIV entry inhibition (PhenoSense), isolate 93/IN/101, clade C: 0.016 µg/mL | IC50, HIV entry inhibition (PhenoSense), isolate 93/RW/029, clade A: 0.019 µg/mL | IC50, HIV entry inhibition (PhenoSense), isolate 93/TH/057, clade E: 0.023 µg/mL | IC50, HIV entry inhibition (PhenoSense), isolate 93/TH/305, clade E: 0.021 µg/mL | IC50, HIV entry inhibition (PhenoSense), isolate 93/UG/067, clade D: 0.016 µg/mL | IC50, HIV entry inhibition (PhenoSense), isolate 93/UG/070, clade D: 0.011 µg/mL | IC50, HIV entry inhibition (PhenoSense), isolate 93/UG/077, clade A: 0.012 µg/mL | IC50, HIV entry inhibition (PhenoSense), isolate 93/UG/082, clade D: 0.016 µg/mL | IC50, HIV entry inhibition (PhenoSense), isolate 93/UG/086, clade D: 0.015 µg/mL | IC50, HIV entry inhibition (PhenoSense), isolate 94/UG/103, clade A: 0.021 µg/mL | IC50, HIV entry inhibition (PhenoSense), isolate 94/UG/105, clade D: 0.021 µg/mL | IC50, HIV entry inhibition (PhenoSense), isolate 94/UG/114, clade D: 0.015 µg/mL | IC50, HIV entry inhibition (PhenoSense), isolate 94/UG/117, clade D: 0.017 µg/mL | IC50, HIV entry inhibition (PhenoSense), isolate 94/UG/118, clade D: 0.02 µg/mL | IC50, HIV entry inhibition (PhenoSense), isolate 10215-6, clade C: 0.018 µg/mL | IC50, HIV entry inhibition (PhenoSense), isolate 10362, clade C: 0.02 µg/mL | IC50, HIV entry inhibition (PhenoSense), isolate 11657-3, clade C: 0.025 µg/mL | IC50, HIV entry inhibition (PhenoSense), isolate 20635-4, clade C: 0.02 µg/mL | IC50, HIV entry inhibition (PhenoSense), isolate 21068, clade C: 0.011 µg/mL | IC50, HIV entry inhibition (PhenoSense), isolate CA1, clade A: 0.011 µg/mL | IC50, HIV entry inhibition (PhenoSense), isolate CA2, clade A: 0.018 µg/mL | IC50, HIV entry inhibition (PhenoSense), isolate CA3, clade A: 0.019 µg/mL | IC50, HIV entry inhibition (PhenoSense), isolate CC1, clade C: 0.016 µg/mL | IC50, HIV entry inhibition (PhenoSense), isolate CC2, clade C: 0.021 µg/mL | IC50, HIV entry inhibition (PhenoSense), isolate CC3, clade C: 0.012 µg/mL | IC50, HIV entry inhibition (PhenoSense), isolate CC4, clade C: 0.013 µg/mL | IC50, HIV entry inhibition (PhenoSense), isolate CC5, clade C: 0.019 µg/mL | IC50, HIV entry inhibition (PhenoSense), isolate CC6, clade C: 0.018 µg/mL | IC50, HIV entry inhibition (PhenoSense), isolate CC7, clade C: 0.013 µg/mL | IC50, HIV entry inhibition (PhenoSense), isolate CC8, clade C: 0.019 µg/mL | IC50, HIV entry inhibition (PhenoSense), isolate CC9, clade C: 0.02 µg/mL | IC50, HIV entry inhibition (PhenoSense), isolate CC10, clade C: 0.015 µg/mL | IC50, HIV entry inhibition (PhenoSense), isolate CD1, clade D: 0.016 µg/mL | IC50, HIV entry inhibition (PhenoSense), isolate CF2, clade F: 0.016 µg/mL | IC50, HIV entry inhibition (PhenoSense), isolate CF3, clade F: 0.024 µg/mL | IC50, HIV entry inhibition (PhenoSense), isolate CF4, clade F: 0.019 µg/mL | IC50, HIV entry inhibition (PhenoSense), isolate CF5, clade F: 0.018 µg/mL | IC50, HIV entry inhibition (PhenoSense), isolate CF6, clade F: 0.018 µg/mL | IC50, HIV entry inhibition (PhenoSense), isolate CF7, clade F: 0.019 µg/mL | IC50, HIV entry inhibition (PhenoSense), isolate CF8, clade F: 0.017 µg/mL | IC50, HIV entry inhibition (PhenoSense), isolate CG1, clade G: 0.018 µg/mL | IC50, HIV entry inhibition (PhenoSense), isolate CG2, clade G: 0.027 µg/mL | IC50, HIV entry inhibition (PhenoSense), isolate CG3, clade G: 0.016 µg/mL | IC50, HIV entry inhibition (PhenoSense), isolate CG4, clade G: 0.013 µg/mL | IC50, HIV entry inhibition (PhenoSense), isolate CJ1, clade J: 0.018 µg/mL | IC50, HIV entry inhibition (PhenoSense), isolate CJ2, clade J: 0.019 µg/mL | IC50, HIV entry inhibition (PhenoSense), isolate CMU02, clade EA: 0.011 µg/mL | IC50, HIV entry inhibition (PhenoSense), isolate CMU06, clade E: 0.026 µg/mL | IC50, HIV entry inhibition (PhenoSense), isolate MW/93/959, clade C: 0.019 µg/mL | IC50, HIV entry inhibition (PhenoSense), isolate MW/93/960, clade C: 0.01 µg/mL | IC50, HIV entry inhibition (PhenoSense), isolate QZ4589, clade E?: 0.036 µg/mL | average IC50, HIV entry inhibition (PhenoSense), all viruses of the table: 0.018 µg/mL

— US20190194326A1 (UBI US, published 2019)
